system: c-Src; experiment: phosphorylation enrichment, bacterial display (enrichment ratio); higher = better substrate or ligand; peptides without Tyr show the background
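For SH2 binding enrichment of the phosphorylated peptide, bacterial display in this document: peptide library displayed on the E. coli surface as eCPX fusions, selected cells deep-sequenced, score is each peptide's frequency after selection divided by its frequency in the input.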
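For phosphorylation enrichment, bacterial display in this document: 11-residue human phosphosite peptides and single-mutation variants displayed on the E. coli surface, counted by deep sequencing, each peptide's frequency after selection divided by its frequency in the unselected input library; frequency after pTyr selection over input frequency; kinase dosed for 20-30% of maximal phosphorylation in three min.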

First: GITVAYTIPKK [UBA5_Y372]
Second: PIDLFYLMDLS [ITGB2_Y131_YF]
The phosphorylation enrichment of the first is lower: 0.396 for the first, 1.52 for the second.

Compared with GKAFIYASHIV [ZNF573_Y229], KRYRIYHLATS [BRCA2_Y3009] is lower in phosphorylation enrichment: 1.21 for the first, 0.508 for the second.

First: ICTVDYLLRLQ [RYR1_Y3921]
Second: VGSIEYLKREW [KCNMA1_Y885]
The phosphorylation enrichment of the first is lower: 0.444 for the first, 0.446 for the second.

Going from EFKKKYSDADI [CKAP5_Y1860_YF] to GVLKEYVVKVL [CPS1_Y529_G530V], the phosphorylation enrichment rises from 0.334 to 0.355.

First: ELPEKYSQNIY [PKP2_Y626]
Second: RSRQIYDAYIM [GRK3_Y109]
The phosphorylation enrichment of the first is lower: 0.575 for the first, 11 for the second.

First: KAIMIYVSSFY [ACTN4_Y260_T259I]
Second: DLDTEYGSGFP [RNASEH2A_Y206_D205E_YF]
The phosphorylation enrichment of the first is lower: 0.465 for the first, 0.825 for the second.

First: GGFTCCCDGKK [PROS1_Y266_Y266C_YF]
Second: ISGGGYRARPA [FGB_Y71]
The phosphorylation enrichment of the first is higher: 0.546 for the first, 0.408 for the second.

Going from RIILLYIFLKN [STXBP1_Y411] to PGRRFYVVACD [RNASE3_Y134], the phosphorylation enrichment rises from 0.62 to 2.16.

Going from KAIDMYLMGCF [GABRB2_Y308] to RIGRKCKKVRF [F8_Y442_Y442C], the phosphorylation enrichment rises from 0.75 to 0.794.

Going from FDCKWYIPLTD [BCR_Y756_YF] to NDLMEYPKQHG [ASS1_Y163_A164P], the phosphorylation enrichment falls from 0.466 to 0.447.

First: LNAGAYSKVVQ [PPT1_Y172]
Second: ADARMCGVLPW [PLP1_Y207_Y207C]
The phosphorylation enrichment of the first is higher: 0.84 for the first, 0.487 for the second.

First: RSRSSYTHGLN [MYCT1_Y116]
Second: DAVAVCHGKIS [SH2D1A_Y7_Y7C]
The phosphorylation enrichment of the first is higher: 1.23 for the first, 0.406 for the second.

First: PFTRNYYVQAV [CYBA_Y87_R90Q]
Second: LFSGDYFRIQG [DDR2_Y740_YF]
The phosphorylation enrichment of the first is lower: 0.615 for the first, 3.77 for the second.

First: SVKVYYKKCWS [EPHA7_Y202]
Second: GGTPLYRDRQG [AGXT_Y194_M195R]
The phosphorylation enrichment of the first is higher: 0.432 for the first, 0.358 for the second.

First: GSCQEYTGAPY [NAXD_Y85_G81S]
Second: RHNEIYEIKVD [LGR5_Y387]
The phosphorylation enrichment of the first is lower: 0.505 for the first, 8.99 for the second.

First: KLYRVYCDMNT [FGB_Y269_P265L]
Second: KASRKYFAMKI [AKT3_Y173_G171R_YF]
The phosphorylation enrichment of the first is higher: 0.549 for the first, 0.456 for the second.

Work on DPLLTYRFPPK [LMNA_Y481] yielded a phosphorylation enrichment of 0.635.

biological target: Grb2 SH2 (UniProt P62993); experiment: SH2 binding enrichment of the phosphorylated peptide, bacterial display (enrichment ratio); higher = better substrate or ligand; peptides without Tyr show the background
Sequence (P62993 whole entry, looked up): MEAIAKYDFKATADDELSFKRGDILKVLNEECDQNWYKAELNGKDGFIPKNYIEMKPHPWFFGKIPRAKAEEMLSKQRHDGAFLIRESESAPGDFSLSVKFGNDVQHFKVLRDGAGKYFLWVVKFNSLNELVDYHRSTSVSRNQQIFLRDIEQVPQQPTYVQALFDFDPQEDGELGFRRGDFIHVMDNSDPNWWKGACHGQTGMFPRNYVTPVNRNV

First: GITVAYTIPKK [UBA5_Y372]
Second: PIDLFYLMDLS [ITGB2_Y131_YF]
The SH2 binding enrichment of the first is lower: 0.71 for the first, 0.957 for the second.

First: GKAFIYASHIV [ZNF573_Y229]
Second: KRYRIYHLATS [BRCA2_Y3009]
The SH2 binding enrichment of the first is lower: 0.76 for the first, 0.791 for the second.

First: ICTVDYLLRLQ [RYR1_Y3921]
Second: VGSIEYLKREW [KCNMA1_Y885]
The SH2 binding enrichment of the first is lower: 0.852 for the first, 0.977 for the second.

First: EFKKKYSDADI [CKAP5_Y1860_YF]
Second: GVLKEYVVKVL [CPS1_Y529_G530V]
The SH2 binding enrichment of the first is lower: 0.883 for the first, 0.949 for the second.

Compared with ELPEKYSQNIY [PKP2_Y626], RSRQIYDAYIM [GRK3_Y109] is lower in SH2 binding enrichment: 0.891 for the first, 0.822 for the second.

Going from KAIMIYVSSFY [ACTN4_Y260_T259I] to DLDTEYGSGFP [RNASEH2A_Y206_D205E_YF], the SH2 binding enrichment rises from 0.816 to 1.06.

Going from GGFTCCCDGKK [PROS1_Y266_Y266C_YF] to ISGGGYRARPA [FGB_Y71], the SH2 binding enrichment falls from 0.787 to 0.771.

Compared with RIILLYIFLKN [STXBP1_Y411], PGRRFYVVACD [RNASE3_Y134] is lower in SH2 binding enrichment: 1.96 for the first, 1.05 for the second.

First: KAIDMYLMGCF [GABRB2_Y308]
Second: RIGRKCKKVRF [F8_Y442_Y442C]
The SH2 binding enrichment of the first is higher: 0.823 for the first, 0.638 for the second.

Compared with FDCKWYIPLTD [BCR_Y756_YF], NDLMEYPKQHG [ASS1_Y163_A164P] is higher in SH2 binding enrichment: 0.772 for the first, 0.887 for the second.

Compared with LNAGAYSKVVQ [PPT1_Y172], ADARMCGVLPW [PLP1_Y207_Y207C] is higher in SH2 binding enrichment: 0.623 for the first, 0.751 for the second.

Going from RSRSSYTHGLN [MYCT1_Y116] to DAVAVCHGKIS [SH2D1A_Y7_Y7C], the SH2 binding enrichment falls from 0.779 to 0.71.

Compared with PFTRNYYVQAV [CYBA_Y87_R90Q], LFSGDYFRIQG [DDR2_Y740_YF] is higher in SH2 binding enrichment: 0.981 for the first, 1.03 for the second.

First: SVKVYYKKCWS [EPHA7_Y202]
Second: GGTPLYRDRQG [AGXT_Y194_M195R]
The SH2 binding enrichment of the first is lower: 0.716 for the first, 0.87 for the second.

First: GSCQEYTGAPY [NAXD_Y85_G81S]
Second: RHNEIYEIKVD [LGR5_Y387]
The SH2 binding enrichment of the first is lower: 0.799 for the first, 1.09 for the second.

Going from KLYRVYCDMNT [FGB_Y269_P265L] to KASRKYFAMKI [AKT3_Y173_G171R_YF], the SH2 binding enrichment falls from 0.868 to 0.796.

For DPLLTYRFPPK [LMNA_Y481], the SH2 binding enrichment was 0.921.

biological target: SHP2-C SH2; experiment: as above

Compared with GITVAYTIPKK [UBA5_Y372], PIDLFYLMDLS [ITGB2_Y131_YF] is lower in SH2 binding enrichment: 1.26 for the first, 0.88 for the second.

First: GKAFIYASHIV [ZNF573_Y229]
Second: KRYRIYHLATS [BRCA2_Y3009]
The SH2 binding enrichment of the first is higher: 0.697 for the first, 0.493 for the second.

Going from ICTVDYLLRLQ [RYR1_Y3921] to VGSIEYLKREW [KCNMA1_Y885], the SH2 binding enrichment rises from 0.813 to 1.06.

Going from EFKKKYSDADI [CKAP5_Y1860_YF] to GVLKEYVVKVL [CPS1_Y529_G530V], the SH2 binding enrichment rises from 0.616 to 0.748.

Going from ELPEKYSQNIY [PKP2_Y626] to RSRQIYDAYIM [GRK3_Y109], the SH2 binding enrichment rises from 0.555 to 0.727.

Compared with KAIMIYVSSFY [ACTN4_Y260_T259I], DLDTEYGSGFP [RNASEH2A_Y206_D205E_YF] is lower in SH2 binding enrichment: 0.845 for the first, 0.622 for the second.

First: GGFTCCCDGKK [PROS1_Y266_Y266C_YF]
Second: ISGGGYRARPA [FGB_Y71]
The SH2 binding enrichment of the first is higher: 0.62 for the first, 0.552 for the second.

Going from RIILLYIFLKN [STXBP1_Y411] to PGRRFYVVACD [RNASE3_Y134], the SH2 binding enrichment falls from 1.53 to 0.569.

First: KAIDMYLMGCF [GABRB2_Y308]
Second: RIGRKCKKVRF [F8_Y442_Y442C]
The SH2 binding enrichment of the first is higher: 0.648 for the first, 0.428 for the second.

Compared with FDCKWYIPLTD [BCR_Y756_YF], NDLMEYPKQHG [ASS1_Y163_A164P] is lower in SH2 binding enrichment: 0.745 for the first, 0.571 for the second.

Going from LNAGAYSKVVQ [PPT1_Y172] to ADARMCGVLPW [PLP1_Y207_Y207C], the SH2 binding enrichment falls from 5.07 to 0.527.

Compared with RSRSSYTHGLN [MYCT1_Y116], DAVAVCHGKIS [SH2D1A_Y7_Y7C] is lower in SH2 binding enrichment: 0.917 for the first, 0.539 for the second.

First: PFTRNYYVQAV [CYBA_Y87_R90Q]
Second: LFSGDYFRIQG [DDR2_Y740_YF]
The SH2 binding enrichment of the first is higher: 3.28 for the first, 0.652 for the second.

First: SVKVYYKKCWS [EPHA7_Y202]
Second: GGTPLYRDRQG [AGXT_Y194_M195R]
The SH2 binding enrichment of the first is lower: 0.521 for the first, 0.78 for the second.

Compared with GSCQEYTGAPY [NAXD_Y85_G81S], RHNEIYEIKVD [LGR5_Y387] is lower in SH2 binding enrichment: 0.764 for the first, 0.629 for the second.

Going from KLYRVYCDMNT [FGB_Y269_P265L] to KASRKYFAMKI [AKT3_Y173_G171R_YF], the SH2 binding enrichment falls from 0.715 to 0.666.

For DPLLTYRFPPK [LMNA_Y481], the SH2 binding enrichment was 0.911.

biological target: c-Src SH2; experiment: as above

Going from GITVAYTIPKK [UBA5_Y372] to PIDLFYLMDLS [ITGB2_Y131_YF], the SH2 binding enrichment falls from 0.835 to 0.524.

Compared with GKAFIYASHIV [ZNF573_Y229], KRYRIYHLATS [BRCA2_Y3009] is higher in SH2 binding enrichment: 0.65 for the first, 1.34 for the second.

Going from ICTVDYLLRLQ [RYR1_Y3921] to VGSIEYLKREW [KCNMA1_Y885], the SH2 binding enrichment rises from 0.459 to 0.473.

First: EFKKKYSDADI [CKAP5_Y1860_YF]
Second: GVLKEYVVKVL [CPS1_Y529_G530V]
The SH2 binding enrichment of the first is higher: 0.487 for the first, 0.479 for the second.

Going from ELPEKYSQNIY [PKP2_Y626] to RSRQIYDAYIM [GRK3_Y109], the SH2 binding enrichment rises from 0.419 to 0.683.

Compared with KAIMIYVSSFY [ACTN4_Y260_T259I], DLDTEYGSGFP [RNASEH2A_Y206_D205E_YF] is lower in SH2 binding enrichment: 0.476 for the first, 0.429 for the second.

Compared with GGFTCCCDGKK [PROS1_Y266_Y266C_YF], ISGGGYRARPA [FGB_Y71] is lower in SH2 binding enrichment: 0.451 for the first, 0.392 for the second.

Compared with RIILLYIFLKN [STXBP1_Y411], PGRRFYVVACD [RNASE3_Y134] is lower in SH2 binding enrichment: 1.11 for the first, 0.849 for the second.

Going from KAIDMYLMGCF [GABRB2_Y308] to RIGRKCKKVRF [F8_Y442_Y442C], the SH2 binding enrichment falls from 0.44 to 0.433.

First: FDCKWYIPLTD [BCR_Y756_YF]
Second: NDLMEYPKQHG [ASS1_Y163_A164P]
The SH2 binding enrichment of the first is lower: 0.482 for the first, 0.538 for the second.

Going from LNAGAYSKVVQ [PPT1_Y172] to ADARMCGVLPW [PLP1_Y207_Y207C], the SH2 binding enrichment falls from 1.71 to 0.477.

Compared with RSRSSYTHGLN [MYCT1_Y116], DAVAVCHGKIS [SH2D1A_Y7_Y7C] is lower in SH2 binding enrichment: 0.593 for the first, 0.536 for the second.

First: PFTRNYYVQAV [CYBA_Y87_R90Q]
Second: LFSGDYFRIQG [DDR2_Y740_YF]
The SH2 binding enrichment of the first is higher: 1.19 for the first, 0.674 for the second.

Going from SVKVYYKKCWS [EPHA7_Y202] to GGTPLYRDRQG [AGXT_Y194_M195R], the SH2 binding enrichment falls from 0.393 to 0.389.

Going from GSCQEYTGAPY [NAXD_Y85_G81S] to RHNEIYEIKVD [LGR5_Y387], the SH2 binding enrichment falls from 0.825 to 0.479.

Going from KLYRVYCDMNT [FGB_Y269_P265L] to KASRKYFAMKI [AKT3_Y173_G171R_YF], the SH2 binding enrichment falls from 1.22 to 0.472.

For DPLLTYRFPPK [LMNA_Y481], the SH2 binding enrichment was 0.542.

— the supplement of paper PMC10065799, “High-throughput profiling of sequence recognition by tyrosine kinases and SH2 domains using bacterial peptide display” (eLife, 2023)
